The data set deals with the molecule itself. The data set is described as follows: size exclusion chromatography, Superdex 75, pH 6.0 (self-association, homodimer). (In gel filtration, larger molecules generally elute earlier.)

B1: recombinant Trypanosoma cruzi proline racemase TcPRACA (rTcPRACA), C-terminal His6-tagged (enzyme)
chain: GQEKLLFDQKYKIIKGEKKEKKKNQRANRREHQQKREIMRFKKSFTCIDMHTEGEAARIVTSGLPHIPGSNMAEKKAYLQENMDYLRRGIMLEPRGHDDMFGAFLFDPIEEGADLGMVFMDTGGYLNMCGHNSIAAVTAAVETGIVSVPAKATNVPVVLDTPAGLVRGTAHLQSGTESEVSNASIINVPSFLYQQDVVVVLPKPYGEVRVDIAFGGNFFAIVPAEQLGIDISVQNLSRLQEAGELLRTEINRSVKVQHPQLPHINTVDCVEIYGPPTNPEANYKNVVIFGNRQADRSPCGTGTSAKMATLYAKGQLRIGETFVYESILGSLFQGRVLGEERIPGVKVPVTKDAEEGMLVVTAEITGKAFIMGFNTMLFDPTDPFKNGFTLKQ
notes: the entry below describes its self-association into a homodimer; also called TcPA45; not shown: C-terminal six-histidine tag from pET28b(+)
On to B1, for which the binding result is on record as “binds”.
